Fewer inactive variants are shown than the library holds.

B1: TPR 5TU (parent)
chain: GGAUCUUCUCGAUCUAACAAAAAAGACAAAUCUGCCACAAAGCUUGAGAGCAUCUUCGGAUGCAGAGGCGGCAGCCUUCGGUGGCGCGAUAGCGCCAACGUUCUCAACUAUGACACGCAAAACGCGUGCUCCGUUGAAUGGAGUUUAUCAUG

In this data set the parent is B1. Description: polymerase ribozyme fitness, log enrichment relative to wild type (log ratio); higher = more active; in vitro selection for triplet polymerase activity. The gist of the method: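 One round of in vitro selection, in triplicate, was applied to PCR-built, transcribed mutant libraries of each subunit of a heterodimeric triplet polymerase ribozyme. The steps were annealing with a biotinylated primer, partner subunit and triplets, incubation frozen at −7 °C, gel excision of extended constructs, streptavidin-bead capture and RT-PCR. Fitness is the logarithm, base 2, of genotype enrichment over wild-type enrichment from inverse-variance-weighted replicate averages of Illumina-sequenced inputs and outputs, keeping genotypes with ≥10 input reads and ≥1 read per output.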
Take U90C G94U A120U G124U: the “polymerase ribozyme fitness (log ratio)” value is no more than -4.2. Consider A91U U111G U151G, for which the “polymerase ribozyme fitness (log ratio)” value was no more than -4.2. As for C87U G140A, the “polymerase ribozyme fitness (log ratio)” value was -3.7. On to C87G G88C G136A, for which the “polymerase ribozyme fitness (log ratio)” value was no more than -4.2. The same measure for C87G C125U: no more than -4.2. Turning to G92C C114U G141U, the “polymerase ribozyme fitness (log ratio)” value was no more than -4.2.

In the case of C87U A113U C116U, the “polymerase ribozyme fitness (log ratio)” value was -1.99. Under C85U G140C stands -2.76; under C93G A115G, -4.09; under A91C U104A, no more than -4.2. As for G94A A97G G124A, the “polymerase ribozyme fitness (log ratio)” value is -1.65. For the variant C93A G140U, the “polymerase ribozyme fitness (log ratio)” value was -3.85. The same measure for G92A C103U C116U A121G: -3.47; for C93U C96U: -3.28. The same measure for C93U C96G: -1.58; for G92A A121U: -2.71; for C93U G133C U134A G140A: no more than -4.2. Under C87U A110U A120C U135A G136A stands no more than -4.2; under G92A C114U, -3.92. On to U90G G141U, for which the “polymerase ribozyme fitness (log ratio)” value is no more than -4.2. The same measure for G92U C95U A147G U148A: -3.45.

As to C93A C103A U135A A138G, the “polymerase ribozyme fitness (log ratio)” value was no more than -4.2. The same measure for A89C C93U U135A: -3.55; for G94A A119C C132G A138U: no more than -4.2; for G88U A97G A98U G133U A150U: no more than -4.2. Consider C87A A91C, for which the “polymerase ribozyme fitness (log ratio)” value was no more than -4.2. As to C93G A119G, the “polymerase ribozyme fitness (log ratio)” value was -3.48. Under G88U C93A stands -3.73; under G86A A89G, -3.55; under G86C C105G, -3.67. The same measure for C87A A89C G124C U148A: no more than -4.2; for A91G G92U G140A: no more than -4.2.

As to C85U C87U A150G, the “polymerase ribozyme fitness (log ratio)” value was -1.59. For C93G A98G, the “polymerase ribozyme fitness (log ratio)” value is -2.91. In the case of C87U U109G U127C U135A, the “polymerase ribozyme fitness (log ratio)” value was -4. Take G92U G136A: the “polymerase ribozyme fitness (log ratio)” value was 0.353. Regarding A89U U144C, the “polymerase ribozyme fitness (log ratio)” value came out at 0.497. Under G86A U111C stands -3.31; under A91U G141U, no more than -4.2; under A91U G141C, -4.05. Under G88A U104G stands no more than -4.2; under C93G G140A, no more than -4.2; under C85U G141A, -0.0572. Under C87A G88C C96U C118U U146C stands no more than -4.2; under G86U A98C U101C, -0.908; under C93A C125G, -2.62. In the case of A89C A110C, the “polymerase ribozyme fitness (log ratio)” value was no more than -4.2. Under C85U A137C stands -3.1; under A89G A119C, -1.39; under G88C C131G U151G, no more than -4.2. In the case of C93G C105A U135A, the “polymerase ribozyme fitness (log ratio)” value was no more than -4.2. In the case of A89G A121G C131G, the “polymerase ribozyme fitness (log ratio)” value was -3.53. The same measure for C87U C116U: -0.851; for C93U A122G C129U U146G: -3.83; for C85U C108G G143A A150G: -3.95. On to C85U C118G C125A, for which the “polymerase ribozyme fitness (log ratio)” value is -0.0117. As to A91U U148C, the “polymerase ribozyme fitness (log ratio)” value is -4.1. The same measure for C93U A120G: -0.649; for C87U G112A: -3.91. Under C85U C116U A147U stands 0.541; under G86U C93A, -0.194. Take G86A G141C: the “polymerase ribozyme fitness (log ratio)” value was -1.01. Regarding C87A G126U, the “polymerase ribozyme fitness (log ratio)” value is no more than -4.2.

Consider C87A G126C, for which the “polymerase ribozyme fitness (log ratio)” value is -4.16. Under A89U G92U A121C G140U stands -3.5; under C85U U144C, 0.118; under C85U A120G A150C, -3.75. As to A91U A97G A122U A147U, the “polymerase ribozyme fitness (log ratio)” value is no more than -4.2. For the variant C87G C114U, the “polymerase ribozyme fitness (log ratio)” value is -4.08. Under C87U C99G U127A stands no more than -4.2; under G88C U144G, -3.7; under C87U C96U U104C A107U G141U, no more than -4.2. The same measure for C93U G126A U139C: -4.1; for C87U U102C A115C: -2.7. The same measure for G92A G141U: -1.8; for C93U A119U U127G: -2.59. On to C87U A98U, for which the “polymerase ribozyme fitness (log ratio)” value is -1.16.

For C87U U148G, the “polymerase ribozyme fitness (log ratio)” value is -3.83. Under A91U G140C stands no more than -4.2. C93G C123U G140U: the “polymerase ribozyme fitness (log ratio)” value is -4.17. The same measure for G92U C116G C132G: -3.8; for G92A A147U: -1.84.

In the case of C93U A115G, the “polymerase ribozyme fitness (log ratio)” value is -3. Under C93G A138G stands no more than -4.2. Regarding G86U A122G, the “polymerase ribozyme fitness (log ratio)” value is -2.43. The same measure for G86U A122U: -1.8; for C85U A142U: -0.394; for G86U C149U: -2.48. Under C85U A119U A138C U145A stands -3.86; under U90G G92C, no more than -4.2. As for A91C U102A C132U, the “polymerase ribozyme fitness (log ratio)” value was -3.54. In the case of G86U A89U, the “polymerase ribozyme fitness (log ratio)” value is -2.62. For the variant C93G U146G C149U, the “polymerase ribozyme fitness (log ratio)” value was -3.51.

As to G92C C95U, the “polymerase ribozyme fitness (log ratio)” value was -0.22.

In the case of C93A A97G A113G G124U, the “polymerase ribozyme fitness (log ratio)” value was -4.12. The same measure for C87G G100C: -3.97; for G86C A97U A98U: -3.05. The same measure for G92U A122U G141C: -0.707; for A91U A121U U144A: no more than -4.2. Take C85U U146C: the “polymerase ribozyme fitness (log ratio)” value is -0.574. The same measure for A89U A115G: -1.6; for G92A C103G C129G U134A: no more than -4.2. The same measure for C85U G136A: 0.767.

Take G92A C96A: the “polymerase ribozyme fitness (log ratio)” value is -3.11. Under A91G C95U stands -2.75; under C87U U102G A138C, no more than -4.2; under G92C C114U U151G, -4.12. Regarding C93G, the “polymerase ribozyme fitness (log ratio)” value was -3.35. The same measure for C93A: -2.17; for C93U: -1.34; for C93U A121U: -0.267. Under C93G A98C A120U stands -3.94. Take C93U C105G: the “polymerase ribozyme fitness (log ratio)” value was -3.36. Under C87U C149A stands -3.78. Under A91G A98G U130G C131A A150U stands no more than -4.2; under A91G C105U, -1.66. The same measure for C87G A122U C129U U134C: no more than -4.2; for C85U G88A: -3.73. With G86U A107G C116A G136U A138C, the “polymerase ribozyme fitness (log ratio)” value was no more than -4.2. The same measure for C87U U134C: -0.522; for C85U U104A U144A: -0.68. Under C93G C103G C118A G136U U146C stands no more than -4.2. The same measure for G88C G100A: no more than -4.2; for C93G G143U: -4.04. On to C87A C95U G141C, for which the “polymerase ribozyme fitness (log ratio)” value was -4.16. The same measure for C87G A97U: no more than -4.2; for C93U C103G: -3.63; for C93U C103U: -1.61. Under C93A U127G stands -4.05; under G86U U144A, -3.12; under C85U C118U G141U, 0.748.

On to C85U C99G U111C A142G, for which the “polymerase ribozyme fitness (log ratio)” value is no more than -4.2. The same measure for C85U C105G A142U: -2.01; for A91C A115G: -4.07; for G86C C99G A106G G124U G136A U148C: no more than -4.2.

C93A C103G A107U A119G G140A: the “polymerase ribozyme fitness (log ratio)” value is no more than -4.2. Consider U90A A119U G126A, for which the “polymerase ribozyme fitness (log ratio)” value was no more than -4.2. On to G94A C105G, for which the “polymerase ribozyme fitness (log ratio)” value was -1.68. The same measure for A89G C108U: -3.7; for C85U A121C G141U: 2.08. Consider C93A G133C, for which the “polymerase ribozyme fitness (log ratio)” value is -4.09. With C85U U101C, the “polymerase ribozyme fitness (log ratio)” value is -0.749. For A91G C96U, the “polymerase ribozyme fitness (log ratio)” value was -3.04. C93U G126A: the “polymerase ribozyme fitness (log ratio)” value was -0.311. As for G86U A97U C132A, the “polymerase ribozyme fitness (log ratio)” value was no more than -4.2. Under G88A C96U stands -3.43; under C87G G126A, -4.11.

Regarding C87A C95A, the “polymerase ribozyme fitness (log ratio)” value is no more than -4.2. Under G94A G140A stands -3.51; under G94A U102G G133A, no more than -4.2. Take C87U U104A: the “polymerase ribozyme fitness (log ratio)” value was -0.828. Under C87A A97G stands no more than -4.2; under G86U U101G, -2.21; under C93U C114A A115C, no more than -4.2. Under C85U C95A stands -0.427; under G92U C125A, -1.82; under G88A A97U U102C, no more than -4.2. Under A91C G100U stands no more than -4.2; under C87U A142U, -0.783; under G86C U135A, -3.03.

For the variant C85U C125A, the “polymerase ribozyme fitness (log ratio)” value is -1.45.

C85U C118G: the “polymerase ribozyme fitness (log ratio)” value was -0.62. In the case of G88U C96G A106U G143A, the “polymerase ribozyme fitness (log ratio)” value was no more than -4.2.

In the case of C87U A150G, the “polymerase ribozyme fitness (log ratio)” value was -1.2.

Consider C87A U145A, for which the “polymerase ribozyme fitness (log ratio)” value is -4.17. With G86C C93G C105U, the “polymerase ribozyme fitness (log ratio)” value is 0.694. Under A89C U101C U146A stands 0.0757.
